Reference: publication PMC3326523, “Histone Recognition and Large-Scale Structural Analysis of the Human Bromodomain Family” (Cell, 2012)
Values belong to the substance of their own block, whether it stands above or below them.

Assays:
[1] = target: WDR9 second bromodomain, WDR9(2) (UniProt Q9NSI6); assay: SPOT peptide array, His6-BRD overlay; conditions: reference: H3K4acK9ac peptide; sites T3
[2] = target: EP300 bromodomain (UniProt Q09472); assay: SPOT peptide array, His6-BRD overlay; conditions: reference: H3K4acK9ac peptide; sites T3
[3] = target: BRD3(1), first bromodomain of BRD3 (human) (UniProt Q15059); assay: ITC; as a1; rows with N of about 0.5 or 0.25: two or more bromodomains on one peptide, apparent binding constants, events not deconvoluted
[4] = target: BRD3(2), second bromodomain of BRD3 (human) (UniProt Q15059); assay: as above
[5] = target: BRD3(1), first bromodomain of BRD3 (human) (UniProt Q15059); assay: ITC; peptide (mM stock) titrated into bromodomain (about 50 μM), by the concentrations in the tables; 10 or 15°C, 50 mM HEPES pH 7.5, 150 mM NaCl; single binding site model
[6] = target: KIAA1240 bromodomain (human) (UniProt Q9ULI0); assay: as above
[7] = target: H3pS10K14acK18ac peptide (ITC) (human); assay: ITC; VP-ITC or ITC200, 10 or 15°C, 50 mM HEPES pH 7.5, 150 mM NaCl; in most cases single binding site model
[8] = target: H3K14ac peptide (ITC) (human); assay: as above
[9] = target: TAF1(1/2), tandem bromodomains of TAF1 (human) (UniProt P21675); assay: ITC; peptide (mM stock) titrated into bromodomain (about 50 μM), by the concentrations in the tables; 10 or 15°C, 50 mM HEPES pH 7.5, 150 mM NaCl; single binding site model
[10] = target: CECR2 bromodomain (human) (UniProt Q9BXF3); assay: as above
[11] = target: BAZ2B bromodomain (human) (UniProt Q9UIF8); assay: as above
[12] = target: TAF1(2), second bromodomain of TAF1 (human) (UniProt P21675); assay: as above
[13] = target: SMARCA2 bromodomain (human) (UniProt P51531); assay: as above
[14] = target: PCAF bromodomain (human) (UniProt Q92831); assay: as above
[15] = target: CREBBP bromodomain (human) (UniProt Q92793); assay: as above
Chain of CREBBP bromodomain (human) (Q92793 1081-1197): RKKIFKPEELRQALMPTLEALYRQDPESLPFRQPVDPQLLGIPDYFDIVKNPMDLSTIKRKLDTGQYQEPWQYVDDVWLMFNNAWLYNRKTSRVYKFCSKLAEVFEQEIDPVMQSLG

Chain of TAF1(1/2), tandem bromodomains of TAF1 (human) (P21675 whole entry): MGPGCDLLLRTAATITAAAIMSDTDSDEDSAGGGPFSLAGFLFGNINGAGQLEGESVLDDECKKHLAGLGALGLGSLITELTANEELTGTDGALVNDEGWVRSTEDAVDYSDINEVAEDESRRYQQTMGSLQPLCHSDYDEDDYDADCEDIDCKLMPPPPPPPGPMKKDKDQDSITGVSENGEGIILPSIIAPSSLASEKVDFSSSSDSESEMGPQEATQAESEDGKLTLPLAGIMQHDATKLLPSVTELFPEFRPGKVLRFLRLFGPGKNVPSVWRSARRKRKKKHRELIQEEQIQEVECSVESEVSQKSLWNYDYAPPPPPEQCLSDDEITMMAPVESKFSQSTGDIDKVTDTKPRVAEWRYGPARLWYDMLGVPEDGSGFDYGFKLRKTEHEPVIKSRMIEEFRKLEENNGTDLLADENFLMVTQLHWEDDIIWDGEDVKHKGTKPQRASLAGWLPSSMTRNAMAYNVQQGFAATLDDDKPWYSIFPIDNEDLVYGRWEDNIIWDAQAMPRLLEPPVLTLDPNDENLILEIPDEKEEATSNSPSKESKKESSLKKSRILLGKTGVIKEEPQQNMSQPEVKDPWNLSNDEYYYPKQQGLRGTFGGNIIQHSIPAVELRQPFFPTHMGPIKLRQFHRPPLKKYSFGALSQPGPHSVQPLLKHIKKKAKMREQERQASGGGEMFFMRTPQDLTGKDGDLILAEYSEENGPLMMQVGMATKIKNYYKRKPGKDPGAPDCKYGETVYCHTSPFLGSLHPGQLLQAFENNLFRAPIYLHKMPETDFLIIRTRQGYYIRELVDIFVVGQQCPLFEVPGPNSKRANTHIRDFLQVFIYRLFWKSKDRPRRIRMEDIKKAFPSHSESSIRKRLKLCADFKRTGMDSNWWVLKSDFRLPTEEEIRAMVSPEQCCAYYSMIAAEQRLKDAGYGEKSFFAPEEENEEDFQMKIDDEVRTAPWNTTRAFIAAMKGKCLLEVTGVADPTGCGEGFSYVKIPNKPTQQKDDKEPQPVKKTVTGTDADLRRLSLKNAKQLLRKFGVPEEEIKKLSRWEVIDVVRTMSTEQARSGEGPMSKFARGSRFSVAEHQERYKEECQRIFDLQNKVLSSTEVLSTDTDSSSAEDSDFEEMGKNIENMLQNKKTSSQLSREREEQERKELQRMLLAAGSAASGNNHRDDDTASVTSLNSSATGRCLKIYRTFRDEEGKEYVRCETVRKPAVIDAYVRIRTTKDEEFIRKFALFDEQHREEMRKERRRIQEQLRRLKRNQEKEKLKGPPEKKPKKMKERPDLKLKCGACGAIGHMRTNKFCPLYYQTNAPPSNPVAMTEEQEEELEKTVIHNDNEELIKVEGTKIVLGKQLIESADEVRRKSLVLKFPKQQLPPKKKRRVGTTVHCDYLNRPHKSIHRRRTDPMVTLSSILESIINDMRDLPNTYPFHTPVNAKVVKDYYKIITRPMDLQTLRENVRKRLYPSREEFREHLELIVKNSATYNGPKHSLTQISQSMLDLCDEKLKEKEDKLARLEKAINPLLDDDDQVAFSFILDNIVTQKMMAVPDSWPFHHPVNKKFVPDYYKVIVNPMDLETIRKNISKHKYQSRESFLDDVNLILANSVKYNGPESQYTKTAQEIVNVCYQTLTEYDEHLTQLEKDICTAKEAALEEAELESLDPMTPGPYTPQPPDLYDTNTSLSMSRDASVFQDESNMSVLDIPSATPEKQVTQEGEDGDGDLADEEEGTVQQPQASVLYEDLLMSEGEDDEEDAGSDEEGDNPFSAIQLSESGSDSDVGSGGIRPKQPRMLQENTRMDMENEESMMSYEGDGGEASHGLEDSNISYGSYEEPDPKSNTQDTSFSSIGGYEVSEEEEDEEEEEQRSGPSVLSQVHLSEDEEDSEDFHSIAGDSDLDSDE
Chain of BRD3(1), first bromodomain of BRD3 (human) (Q15059 whole entry): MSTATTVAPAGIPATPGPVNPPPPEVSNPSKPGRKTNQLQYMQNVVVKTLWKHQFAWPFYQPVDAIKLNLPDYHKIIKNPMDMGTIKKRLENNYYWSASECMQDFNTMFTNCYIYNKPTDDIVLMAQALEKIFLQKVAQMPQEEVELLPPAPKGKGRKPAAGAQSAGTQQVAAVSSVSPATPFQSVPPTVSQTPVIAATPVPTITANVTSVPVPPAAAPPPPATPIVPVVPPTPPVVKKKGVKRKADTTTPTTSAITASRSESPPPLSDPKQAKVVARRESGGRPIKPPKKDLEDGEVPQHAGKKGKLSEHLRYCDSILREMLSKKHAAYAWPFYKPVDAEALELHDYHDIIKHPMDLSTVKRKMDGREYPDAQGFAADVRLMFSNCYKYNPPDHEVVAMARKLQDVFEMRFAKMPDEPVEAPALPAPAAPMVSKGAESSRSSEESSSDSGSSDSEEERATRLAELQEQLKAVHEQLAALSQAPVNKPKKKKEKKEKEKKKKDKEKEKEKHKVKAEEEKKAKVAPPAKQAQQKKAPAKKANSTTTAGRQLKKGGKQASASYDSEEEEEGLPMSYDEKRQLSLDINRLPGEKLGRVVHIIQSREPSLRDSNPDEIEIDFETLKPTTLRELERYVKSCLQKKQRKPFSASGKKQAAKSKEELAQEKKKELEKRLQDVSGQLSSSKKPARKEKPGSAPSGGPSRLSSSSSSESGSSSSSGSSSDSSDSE
Chain of CECR2 bromodomain (human) (Q9BXF3 424-538): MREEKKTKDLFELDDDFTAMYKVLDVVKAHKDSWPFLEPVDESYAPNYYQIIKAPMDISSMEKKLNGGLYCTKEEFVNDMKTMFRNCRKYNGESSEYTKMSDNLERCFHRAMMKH
Chain of bromodomain of CREBBP, tag removed (ITC) (Q92793 1081-1197): as the sequence (Q92793 1081-1197) above
Chain of BAZ2B bromodomain (human) (Q9UIF8 whole entry): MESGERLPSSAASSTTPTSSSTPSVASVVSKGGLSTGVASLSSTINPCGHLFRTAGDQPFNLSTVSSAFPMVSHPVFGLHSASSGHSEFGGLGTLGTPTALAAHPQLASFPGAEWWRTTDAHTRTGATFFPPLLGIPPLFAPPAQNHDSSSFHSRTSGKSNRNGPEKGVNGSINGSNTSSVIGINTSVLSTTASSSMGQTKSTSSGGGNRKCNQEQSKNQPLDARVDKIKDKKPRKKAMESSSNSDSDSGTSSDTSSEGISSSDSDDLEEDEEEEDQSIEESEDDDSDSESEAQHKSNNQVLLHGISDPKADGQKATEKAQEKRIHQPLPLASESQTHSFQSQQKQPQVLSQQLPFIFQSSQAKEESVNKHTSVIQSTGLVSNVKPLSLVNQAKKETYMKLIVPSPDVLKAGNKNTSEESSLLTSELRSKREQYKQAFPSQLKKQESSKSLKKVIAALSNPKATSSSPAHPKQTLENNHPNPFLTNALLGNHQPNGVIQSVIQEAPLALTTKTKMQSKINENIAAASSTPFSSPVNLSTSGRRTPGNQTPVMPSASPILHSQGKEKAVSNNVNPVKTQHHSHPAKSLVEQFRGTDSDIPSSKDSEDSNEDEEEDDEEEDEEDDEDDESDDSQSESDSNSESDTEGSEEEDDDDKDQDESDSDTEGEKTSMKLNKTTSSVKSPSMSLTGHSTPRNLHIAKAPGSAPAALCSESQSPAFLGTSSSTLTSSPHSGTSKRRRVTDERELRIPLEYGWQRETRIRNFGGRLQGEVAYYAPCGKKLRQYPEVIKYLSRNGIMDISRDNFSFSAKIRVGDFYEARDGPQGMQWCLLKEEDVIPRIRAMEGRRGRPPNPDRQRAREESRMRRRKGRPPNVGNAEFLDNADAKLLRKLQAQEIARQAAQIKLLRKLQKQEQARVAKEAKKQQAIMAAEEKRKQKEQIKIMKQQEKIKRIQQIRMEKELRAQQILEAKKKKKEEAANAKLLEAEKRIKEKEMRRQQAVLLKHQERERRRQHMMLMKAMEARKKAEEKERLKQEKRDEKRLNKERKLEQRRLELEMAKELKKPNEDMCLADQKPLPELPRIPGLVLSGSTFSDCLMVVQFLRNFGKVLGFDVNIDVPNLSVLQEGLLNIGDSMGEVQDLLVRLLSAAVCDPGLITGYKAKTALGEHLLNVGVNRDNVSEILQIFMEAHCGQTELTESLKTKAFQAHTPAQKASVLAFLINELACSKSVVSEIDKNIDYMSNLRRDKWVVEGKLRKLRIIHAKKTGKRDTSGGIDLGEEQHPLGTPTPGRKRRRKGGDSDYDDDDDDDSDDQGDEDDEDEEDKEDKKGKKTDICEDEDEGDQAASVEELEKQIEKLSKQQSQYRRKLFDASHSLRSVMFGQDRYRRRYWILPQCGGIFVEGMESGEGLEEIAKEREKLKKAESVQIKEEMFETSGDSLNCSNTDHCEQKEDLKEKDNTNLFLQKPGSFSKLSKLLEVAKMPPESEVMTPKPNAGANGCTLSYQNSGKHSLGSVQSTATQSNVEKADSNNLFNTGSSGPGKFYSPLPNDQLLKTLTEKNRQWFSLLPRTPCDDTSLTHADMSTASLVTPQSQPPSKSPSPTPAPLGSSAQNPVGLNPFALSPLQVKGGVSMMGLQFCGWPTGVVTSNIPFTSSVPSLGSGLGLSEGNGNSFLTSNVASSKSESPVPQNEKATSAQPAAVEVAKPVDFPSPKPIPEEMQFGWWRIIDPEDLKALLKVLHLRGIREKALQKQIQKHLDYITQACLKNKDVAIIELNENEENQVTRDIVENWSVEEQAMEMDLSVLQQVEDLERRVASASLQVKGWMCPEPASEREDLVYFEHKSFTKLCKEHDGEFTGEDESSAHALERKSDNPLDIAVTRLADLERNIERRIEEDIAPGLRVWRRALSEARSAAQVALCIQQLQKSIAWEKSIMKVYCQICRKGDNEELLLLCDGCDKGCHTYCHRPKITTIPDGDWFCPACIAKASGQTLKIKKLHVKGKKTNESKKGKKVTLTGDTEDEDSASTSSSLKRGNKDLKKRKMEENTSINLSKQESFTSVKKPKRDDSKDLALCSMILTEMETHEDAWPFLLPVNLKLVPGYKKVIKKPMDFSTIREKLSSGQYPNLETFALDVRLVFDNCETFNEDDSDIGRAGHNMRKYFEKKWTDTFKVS
Chain of TAF1(2), second bromodomain of TAF1 (human) (P21675 whole entry): as the sequence (P21675 whole entry) above

Substance: histone H3 N-terminal tail (from UniProt P68431) H3 pT3K4acK9ac peptide
- binding against the reference [1]: gained
- binding against the reference [2]: gained

- Kd [3]: 31.4 µM
- stoichiometry N [3]: 0.51
- stoichiometry N [4]: 0.5
Substance: H4K12/16/20 peptide GKacGGAKacRHRKacV

- Kd [5]: 211 µM
- stoichiometry N [5]: 1
- stoichiometry N [6]: 1
Substance: H4K8 peptide RGKGGKacGLGKGY

- Kd [7]: 131 µM
- Kd [8]: 733 µM
Substance: bromodomain of CREBBP, tag removed (ITC) (from UniProt Q92793 1081-1197) (domain or fragment)

- Kd [9]: 150 µM
- stoichiometry N [9]: 1.05
Substance: H3K9/S10/K14 peptide KQTARKacpSTGGKacAPRKQY

- stoichiometry N [10]: 1
Substance: H3K9 peptide KQTARKacSTGGKY

- Kd [11]: 7.6 µM
- stoichiometry N [11]: 1
- Kd [9]: 179 µM
- stoichiometry N [9]: 1.01
- Kd [12]: 306 µM
- stoichiometry N [13]: 1.05
- stoichiometry N [14]: 1.01
- stoichiometry N [10]: 1
Substance: H3K14 peptide KSTGGKacAPRKQY

- Kd [9]: 339 µM
- stoichiometry N [9]: 1.02
Substance: H3K9/K14 peptide KQTARKacSTGGKacAPRKQY

- stoichiometry N [15]: 1
Substance: H3S10K14K18 peptide KpSTGGKacAPRKacQY
